Results reported in patent US20240218024A1, “METHODS AND COMPOSITIONS FOR TREATMENT OF VIRAL INFECTION” (TECHNION RESEARCH & DEVELOPMENT FOUNDATION LIMITED, priority 2021, published 2024).

Assays:
[1] = tested on: SARS-COV-2 omicron variant; format: cell-based; conditions: slncRNA alone, low concentrations (potentially a non-specific effect at higher concentrations)
SARS-COV-2 delta variant = format: cell-based; conditions: slncRNA alone, low concentrations (potentially a non-specific effect at higher concentrations)

B1: PCP-14×/MCP-15×: class II slncRNA with fourteen PCP binding sites spaced by hairpins that do not bind PCP (SEQ ID NO: 28) (nucleic acid)
chain: GAGAAACGTTTCGACATTATATGGAATGCGAAAGTGGAACGTAATGGACATGAAGACGATTACGCTTCACACGGAGGATGCGGGAAACATGAAGATCACCCATGTTCGCTTAACCATGGATAGGGATCACCCATGTTGCGGTGGTGCGTCAACCAGAGATTTCATATGGGAAACTCTGGGACACGCTGTATTTATACATGAGGATCACCATGTGTGCTTAAATATGGGTAAGTTGACCATTAGGCAACTGTAAGATGCTCCGGTTAATTCCAGTTTATATGGAAACGGAATTGATGTACCGTTGAGCAAGAACACGATTACGGTTCTTCGATTAGATATGGTTTAAACGACAATATATGGATTGCGTTTTGGGGCACGCCGTCTGGAGAAGACCATTAGGCTTCTTTACTGCGACCGCAATAAAAGGAGATTATATGAAATCCCTTTGCGCGCAACCGGGTAGAAGATCACCATTAGGGATCTGTAACTCACGGCGCTATTACGAGTCAATATGGTGACCGTAAAGCTAGGGCATGTGCCAGAAGAGCATTAGCCTTCTCCTTGGTGGGGAAGCGATAAGCACATTATAAGGAATGGCTTAAAGTGGTGCGGCGGGGGACTTGACCATTAGGCAAGTGTGCTAGACCCTGGTCTTTTCGAGAAAATATGGTTTCCGAAAGAACTATACGAAGTGACATGCGAGGATTACCCGCATATGGTGCAAATGGGAGAATTGGAGTAAATATGGTTACCCAATAGGCTAGAGCATGACGGCAGTGAGAATTATCCACTGGTTAGCGGGTTACCGAGATTGCACATTATATGGAATGGCAATTGATTCATGCCGGTCGTTTGTGAGGAGTACCCACAAAATGGGAGGGTGCTATATAACCAGGTTATATGCAACCGGTTAGGCCGTTGTGTTAGTTTAGTTCAGCATTAGCGAACTGTGCAAGACCCGGTGGCTAAGGAGTTTATATGGAAACCCTTAGCCCTCGAGCATGCTAACATGAGGATTACCCATGTGATGGGTTTGAAACGTGCAATTATTTGATATGGCAAAAATTGGGTAGGGCATGGCTGCAGCGTGAGAATTATCCACGCTAGGCTAGAGCATGGCGGTATTGAGTTCGGGTTTGAGATGACCATTAGGCATCTGTGCTAGAGCATGCGAAAACGACATAATATGGTATGCGTTTTGGGGTGCTAGTATACCACATGATGAGCACACATGTATGGGTGGGAGGTAGAGGGATTCTCGCGAGAAGA
In the case of B1, the antiviral response [1] is reported as “no substantial antiviral response” and the antiviral response (SARS-COV-2 delta variant) is reported as “no substantial antiviral response”.
